Test results taken from patent publication US11535650 (RA PHARMACEUTICALS, dated 2022).
Positions of bridges follow the written chain, without caps; N, C: chain ends. Non-standard residues stand in square brackets, D forms with d. Primed or numbered codes have the meaning given here. mXylyl(3) = bridging moiety between the two residues given in brackets; mXylyl″ = bridging moiety between the two marked residues; mXylyl = bridging moiety between residues (mXylyl(i,j)); Ala(1H-tetrazol-5-yl) = N[C@@H](Cc1nnn[nH]1)C(=O)O; Trp(7-aza) = N[C@@H](Cc1c[nH]c2ncccc12)C(=O)O; mXylyl(4) = bridging moiety between residues; Phe(3-Cl) = N[C@@H](Cc1cccc(Cl)c1)C(=O)O; Tiq1c(1S) = O=C(O)[C@H]1NCCc2ccccc21; Phg = N[C@H](C(=O)O)c1ccccc1; Tle = CC(C)(C)[C@H](N)C(=O)O; NMeS = CN[C@@H](CO)C(=O)O; Nle = CCCC[C@H](N)C(=O)O; Nva = CCC[C@H](N)C(=O)O

Molecular target: human C5 protein (human, UniProt P01031 19-673; P01031 678-1676)
Test: cell-based or functional assay

B1: R3126 (peptide)
peptide: Ac-[Nva]CYNN[Tle]E[Trp(7-aza)]ECP[Phg][Tle]-NH2
modifications: cysteine pairing not given here
Avg. IC50, human hemolysis assay (complete human sera): > 3 µM

B2: R3125 (peptide)
peptide: Ac-CVERFCWEF-NH2
modifications: linker 1-6 via mXylyl(4)
Avg. IC50, human hemolysis assay (complete human sera): > 100 µM

B3: R3129 (peptide)
peptide: Ac-[Nva]CYNN[Tle]ECEYP[Phg][Tle]-NH2
modifications: linker 2-8 via mXylyl(4)
Avg. IC50, human hemolysis assay (complete human sera): > 100 µM

B4: R3119 (peptide)
peptide: Ac-YENY[dW]EYP[Phg][Nva]-NH2
SMILES: CCC[C@H](NC(=O)[C@@H](NC(=O)[C@@H]1CCCN1C(=O)[C@H](Cc1ccc(O)cc1)NC(=O)[C@H](CCC(=O)O)NC(=O)[C@@H](Cc1c[nH]c2ccccc12)NC(=O)[C@H](Cc1ccc(O)cc1)NC(=O)[C@H](CC(N)=O)NC(=O)[C@H](CCC(=O)O)NC(=O)[C@H](Cc1ccc(O)cc1)NC(C)=O)c1ccccc1)C(N)=O
Avg. IC50, human hemolysis assay (complete human sera): > 100 µM

B5: R3111 (peptide)
peptide: Ac-[Nva]T[Phg]C[Trp(7-aza)]EY[NMeS]AC[Nva]-NH2
modifications: linker 4-10 via mXylyl(4)
Avg. IC50, human hemolysis assay (complete human sera): > 5 µM

B6: R3128 (peptide)
peptide: Ac-[Nva]CYNN[Tle]ECEYP[Phg][Tle]-NH2
modifications: cysteine pairing not given here
Avg. IC50, human hemolysis assay (complete human sera): > 100 µM

B7: R3127 (peptide)
peptide: Ac-[Nva]CYNN[Tle]E[Trp(7-aza)]ECP[Phg][Tle]-NH2
modifications: linker 2-10 via mXylyl(4)
Avg. IC50, human hemolysis assay (complete human sera): > 75 µM

B8: R3133 (peptide)
peptide: Ac-[Nva]C[Phg][dA][Trp(7-aza)]EY[NMeS]HC[Nva]-NH2
modifications: linker 2-10 via mXylyl″
Avg. IC50, human hemolysis assay (complete human sera): > 75 µM

B9: R3132 (peptide)
peptide: Ac-[Nva]C[Phg]T[dW]EY[NMeS]HC[Nva]-NH2
modifications: linker 2-10 via mXylyl″
Avg. IC50, human hemolysis assay (complete human sera): > 100 µM

B10: R3012 (peptide)
peptide: Ac-[Nva]C[Phg]T[Trp(7-aza)]EY[NMeS]HC[Nva]-NH2
modifications: linker 2-10 via mXylyl
Avg. IC50, human hemolysis assay (complete human sera): 0.148 µM

B11: R3112 (peptide)
peptide: Ac-[Nle]C[Phg]T[Trp(7-aza)]EY[NMeS]HC[Nva]-NH2
modifications: linker 2-10 via mXylyl(4)
Avg. IC50, human hemolysis assay (complete human sera): > 5 µM

B12: R3131 (peptide)
peptide: Ac-[Nva]C[Phg]TW[Ala(1H-tetrazol-5-yl)]Y[NMeS]HC[Nva]-NH2
modifications: linker 2-10 via mXylyl(3)
Avg. IC50, human hemolysis assay (complete human sera): > 100 µM

B13: R3122 (peptide)
peptide: Ac-[Nva]C[Tiq1c(1S)]T[Trp(7-aza)]EY[NMeS]HC[Nva]-NH2
modifications: linker 2-10 via mXylyl(3)
Avg. IC50, human hemolysis assay (complete human sera): > 50 µM

B14: R3124 (peptide)
peptide: Ac-CVERFCVYWEF-NH2
modifications: linker 1-6 via mXylyl(4)
Avg. IC50, human hemolysis assay (complete human sera): > 100 µM

B15: R3113 (peptide)
peptide: Ac-Y[Nva]C[Phg]T[Trp(7-aza)]EY[NMeS]HC[Nva]-NH2
modifications: linker 3-11 via mXylyl(4)
Avg. IC50, human hemolysis assay (complete human sera): > 5 µM

B16: R3134 (peptide)
peptide: Ac-[Nva]C[Phg]T[Trp(7-aza)]E[Phe(3-Cl)][NMeS]AC[Nva]-NH2
modifications: linker 2-10 via mXylyl″
Avg. IC50, human hemolysis assay (complete human sera): > 5 µM
